These results are taken from PMC10438466.

Data set [1] can be described thus: cycloheximide chase, WB, MCF-7 FOXA1 KO. The settings on record: glycan lost; control: FOXA1WT.
Data set [2] is described as follows: HA IP, anti-phospho-Ser/Thr WB. As to conditions: glycan lost; control: FOXA1WT, untreated.
Data set [3] in a line: HA IP, anti-ubiquitin WB. As to conditions: control: untreated HA-FOXA1WT cells.
Data set [4] is described as follows: WB of HA-FOXA1 protein level. The settings on record: control: untreated HA-FOXA1WT cells.

B1: FOXA1: FOXA13A (protein)
parent chain: MLGTVKMEGHETSDWNSYYADTQEAYSSVPVSNMNSGLGSMNSMNTYMTMNTMTTSGNMTPASFNMSYANPGLGAGLSPGAVAGMPGGSAGAMNSMTAAGVTAMGTALSPSGMGAMGAQQAASMNGLGPYAAAMNPCMSPMAYAPSNLGRSRAGGGGDAKTFKRSYPHAKPPYSYISLITMAIQQAPSKMLTLSEIYQWIMDLFPYYRQNQQRWQNSIRHSLSFNDCFVKVARSPDKPGKGSYWTLHPDSGNMFENGCYLRRQKRFKCEKQPGAGGGGGSGSGGSGAKGGPESRKDPSGASNPSADSPLHRGVHGKTGQLEGAPAPGPAASPQTLDHSGATATGGASELKTPASSTAPPISSGPGALASVPASHPAHGLAPHESQLHLKGDPHYSFNHPFSINNLMSSSEQQHKLDFKAYEQALQYSPYGSTLPASLPLGSASVTTRSPIEPSALEPAYYQGVYSRPVLNTS
Take B1: the degradation_or_half_life result in data set [1] is “increases”. Besides, the “other: serine/threonine phosphorylation” value in data set [2] is reported as “decreases”.

B2: FOXA1: TMG (protein)
parent chain: MLGTVKMEGHETSDWNSYYADTQEAYSSVPVSNMNSGLGSMNSMNTYMTMNTMTTSGNMTPASFNMSYANPGLGAGLSPGAVAGMPGGSAGAMNSMTAAGVTAMGTALSPSGMGAMGAQQAASMNGLGPYAAAMNPCMSPMAYAPSNLGRSRAGGGGDAKTFKRSYPHAKPPYSYISLITMAIQQAPSKMLTLSEIYQWIMDLFPYYRQNQQRWQNSIRHSLSFNDCFVKVARSPDKPGKGSYWTLHPDSGNMFENGCYLRRQKRFKCEKQPGAGGGGGSGSGGSGAKGGPESRKDPSGASNPSADSPLHRGVHGKTGQLEGAPAPGPAASPQTLDHSGATATGGASELKTPASSTAPPISSGPGALASVPASHPAHGLAPHESQLHLKGDPHYSFNHPFSINNLMSSSEQQHKLDFKAYEQALQYSPYGSTLPASLPLGSASVTTRSPIEPSALEPAYYQGVYSRPVLNTS
On to B2, for which, in data set [3] (glycan gained), the “other: ubiquitination” value is given as “increases”. Further, the expression_or_secretion result in data set [4] (glycan gained) is recorded as “decreases”.

B3: FOXA1: OSMI-4 (protein)
parent chain: MLGTVKMEGHETSDWNSYYADTQEAYSSVPVSNMNSGLGSMNSMNTYMTMNTMTTSGNMTPASFNMSYANPGLGAGLSPGAVAGMPGGSAGAMNSMTAAGVTAMGTALSPSGMGAMGAQQAASMNGLGPYAAAMNPCMSPMAYAPSNLGRSRAGGGGDAKTFKRSYPHAKPPYSYISLITMAIQQAPSKMLTLSEIYQWIMDLFPYYRQNQQRWQNSIRHSLSFNDCFVKVARSPDKPGKGSYWTLHPDSGNMFENGCYLRRQKRFKCEKQPGAGGGGGSGSGGSGAKGGPESRKDPSGASNPSADSPLHRGVHGKTGQLEGAPAPGPAASPQTLDHSGATATGGASELKTPASSTAPPISSGPGALASVPASHPAHGLAPHESQLHLKGDPHYSFNHPFSINNLMSSSEQQHKLDFKAYEQALQYSPYGSTLPASLPLGSASVTTRSPIEPSALEPAYYQGVYSRPVLNTS
For B3, the “other: serine/threonine phosphorylation” value in data set [2] is on record as “decreases”. Moreover, the “other: ubiquitination” value in data set [3] (glycan lost) was “decreases”. The expression_or_secretion result in data set [4] (glycan lost) is listed as “increases”.
